Data: the supplement of paper PMC10065799, “High-throughput profiling of sequence recognition by tyrosine kinases and SH2 domains using bacterial peptide display” (eLife, 2023)

How the values were obtained:
Jak2 = Jak2 (UniProt O60674); assay: phosphorylation enrichment, bacterial display (enrichment ratio); higher = better substrate or ligand; peptides without Tyr show the background
c-Src = assay: as above
FGFR3 = FGFR3 (UniProt P22607); assay: as above
c-Abl (mouse) = assay: as above
Fes = Fes (UniProt P07332); assay: as above
Fyn = Fyn (UniProt P06241); assay: as above
Hck = Hck (UniProt P08631); assay: as above
MERTK = MERTK (UniProt Q12866); assay: as above
Fer (mouse) = assay: as above
AncSZ = assay: as above
EPHB2 = EPHB2 (UniProt P29323); assay: as above
EPHB1 = EPHB1 (UniProt P54762); assay: as above
FGFR1 = FGFR1 (UniProt P11362); assay: as above
SHP2-C SH2 = assay: SH2 binding enrichment of the phosphorylated peptide, bacterial display (enrichment ratio); higher = better substrate or ligand; peptides without Tyr show the background
c-Src SH2 = assay: as above
Grb2 SH2 = Grb2 SH2 (UniProt P62993); assay: as above
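Throughout, for SH2 binding enrichment of the phosphorylated peptide, bacterial display: peptide library displayed on the E. coli surface as eCPX fusions, selected cells deep-sequenced, score is each peptide's frequency after selection divided by its frequency in the input.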
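Throughout, for phosphorylation enrichment, bacterial display: 11-residue human phosphosite peptides and single-mutation variants displayed on the E. coli surface, counted by deep sequencing, each peptide's frequency after selection divided by its frequency in the unselected input library; frequency after pTyr selection over input frequency; kinase dosed for 20-30% of maximal phosphorylation in three min.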

Sequence of FGFR3 (P22607 whole entry, looked up): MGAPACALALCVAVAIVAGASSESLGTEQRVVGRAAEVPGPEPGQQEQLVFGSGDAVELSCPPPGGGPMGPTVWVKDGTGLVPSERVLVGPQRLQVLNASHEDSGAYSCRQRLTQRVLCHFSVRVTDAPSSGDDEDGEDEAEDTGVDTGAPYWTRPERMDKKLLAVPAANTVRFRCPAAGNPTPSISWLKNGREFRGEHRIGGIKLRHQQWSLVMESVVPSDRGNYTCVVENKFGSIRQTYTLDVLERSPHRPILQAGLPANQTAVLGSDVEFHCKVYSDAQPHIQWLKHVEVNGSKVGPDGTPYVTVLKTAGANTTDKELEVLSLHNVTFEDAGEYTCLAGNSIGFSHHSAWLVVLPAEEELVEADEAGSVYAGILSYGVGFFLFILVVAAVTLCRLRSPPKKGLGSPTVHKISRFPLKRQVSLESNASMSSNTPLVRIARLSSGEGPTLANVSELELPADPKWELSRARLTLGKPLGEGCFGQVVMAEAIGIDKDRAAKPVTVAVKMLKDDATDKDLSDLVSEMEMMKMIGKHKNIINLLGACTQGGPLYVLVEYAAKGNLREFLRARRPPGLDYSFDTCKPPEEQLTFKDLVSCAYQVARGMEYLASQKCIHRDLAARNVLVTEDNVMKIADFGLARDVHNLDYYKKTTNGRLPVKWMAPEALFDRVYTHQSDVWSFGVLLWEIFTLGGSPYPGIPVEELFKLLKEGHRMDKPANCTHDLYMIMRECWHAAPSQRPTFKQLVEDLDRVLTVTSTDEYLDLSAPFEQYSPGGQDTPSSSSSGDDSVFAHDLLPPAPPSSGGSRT
Sequence of FGFR1 (P11362 whole entry, looked up): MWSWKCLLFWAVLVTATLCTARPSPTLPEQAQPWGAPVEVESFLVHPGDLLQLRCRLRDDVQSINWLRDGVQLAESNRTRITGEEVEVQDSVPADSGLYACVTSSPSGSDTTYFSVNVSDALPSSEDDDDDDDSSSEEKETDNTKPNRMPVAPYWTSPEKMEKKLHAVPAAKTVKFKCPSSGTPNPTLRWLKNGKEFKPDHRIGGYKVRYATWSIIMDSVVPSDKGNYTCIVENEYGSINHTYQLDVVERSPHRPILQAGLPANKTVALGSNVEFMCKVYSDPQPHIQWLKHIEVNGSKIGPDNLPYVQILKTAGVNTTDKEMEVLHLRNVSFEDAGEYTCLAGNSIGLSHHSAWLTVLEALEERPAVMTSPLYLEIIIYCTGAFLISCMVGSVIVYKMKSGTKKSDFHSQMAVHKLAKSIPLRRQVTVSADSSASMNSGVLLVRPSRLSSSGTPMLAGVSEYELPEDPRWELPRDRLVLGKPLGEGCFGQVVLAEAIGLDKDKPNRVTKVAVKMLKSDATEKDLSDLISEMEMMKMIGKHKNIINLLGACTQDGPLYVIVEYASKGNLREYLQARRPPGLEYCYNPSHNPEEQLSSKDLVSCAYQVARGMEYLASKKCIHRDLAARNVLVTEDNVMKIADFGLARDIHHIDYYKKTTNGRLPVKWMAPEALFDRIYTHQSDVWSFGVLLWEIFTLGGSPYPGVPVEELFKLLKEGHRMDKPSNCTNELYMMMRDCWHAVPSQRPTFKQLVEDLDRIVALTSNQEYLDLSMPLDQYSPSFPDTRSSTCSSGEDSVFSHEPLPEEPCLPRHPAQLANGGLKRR
Sequence of MERTK (Q12866 whole entry, looked up): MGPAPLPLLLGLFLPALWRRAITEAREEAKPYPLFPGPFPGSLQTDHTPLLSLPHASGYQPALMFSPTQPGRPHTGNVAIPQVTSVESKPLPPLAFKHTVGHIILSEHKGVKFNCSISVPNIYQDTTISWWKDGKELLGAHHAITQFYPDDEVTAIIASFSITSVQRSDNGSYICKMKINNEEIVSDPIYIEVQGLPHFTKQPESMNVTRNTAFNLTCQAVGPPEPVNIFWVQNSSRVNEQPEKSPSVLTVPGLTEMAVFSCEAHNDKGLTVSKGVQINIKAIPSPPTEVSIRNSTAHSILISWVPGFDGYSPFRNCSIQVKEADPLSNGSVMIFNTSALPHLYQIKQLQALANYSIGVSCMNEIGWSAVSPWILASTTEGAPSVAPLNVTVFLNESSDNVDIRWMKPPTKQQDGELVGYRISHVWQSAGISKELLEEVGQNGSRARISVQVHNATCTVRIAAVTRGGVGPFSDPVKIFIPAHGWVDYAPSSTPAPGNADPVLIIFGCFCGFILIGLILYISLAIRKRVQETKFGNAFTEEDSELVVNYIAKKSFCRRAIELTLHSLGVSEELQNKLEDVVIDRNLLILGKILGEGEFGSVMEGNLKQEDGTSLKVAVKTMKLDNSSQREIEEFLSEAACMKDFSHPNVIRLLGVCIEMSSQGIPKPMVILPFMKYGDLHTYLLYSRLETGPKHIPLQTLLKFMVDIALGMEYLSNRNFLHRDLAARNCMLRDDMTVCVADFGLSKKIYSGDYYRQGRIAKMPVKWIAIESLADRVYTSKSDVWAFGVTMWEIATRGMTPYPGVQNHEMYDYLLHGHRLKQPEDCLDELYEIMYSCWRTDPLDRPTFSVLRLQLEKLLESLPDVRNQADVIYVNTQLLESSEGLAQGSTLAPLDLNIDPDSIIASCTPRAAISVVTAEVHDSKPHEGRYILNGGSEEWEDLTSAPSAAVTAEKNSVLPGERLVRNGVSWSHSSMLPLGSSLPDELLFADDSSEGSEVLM
Sequence of EPHB2 (P29323 whole entry, looked up): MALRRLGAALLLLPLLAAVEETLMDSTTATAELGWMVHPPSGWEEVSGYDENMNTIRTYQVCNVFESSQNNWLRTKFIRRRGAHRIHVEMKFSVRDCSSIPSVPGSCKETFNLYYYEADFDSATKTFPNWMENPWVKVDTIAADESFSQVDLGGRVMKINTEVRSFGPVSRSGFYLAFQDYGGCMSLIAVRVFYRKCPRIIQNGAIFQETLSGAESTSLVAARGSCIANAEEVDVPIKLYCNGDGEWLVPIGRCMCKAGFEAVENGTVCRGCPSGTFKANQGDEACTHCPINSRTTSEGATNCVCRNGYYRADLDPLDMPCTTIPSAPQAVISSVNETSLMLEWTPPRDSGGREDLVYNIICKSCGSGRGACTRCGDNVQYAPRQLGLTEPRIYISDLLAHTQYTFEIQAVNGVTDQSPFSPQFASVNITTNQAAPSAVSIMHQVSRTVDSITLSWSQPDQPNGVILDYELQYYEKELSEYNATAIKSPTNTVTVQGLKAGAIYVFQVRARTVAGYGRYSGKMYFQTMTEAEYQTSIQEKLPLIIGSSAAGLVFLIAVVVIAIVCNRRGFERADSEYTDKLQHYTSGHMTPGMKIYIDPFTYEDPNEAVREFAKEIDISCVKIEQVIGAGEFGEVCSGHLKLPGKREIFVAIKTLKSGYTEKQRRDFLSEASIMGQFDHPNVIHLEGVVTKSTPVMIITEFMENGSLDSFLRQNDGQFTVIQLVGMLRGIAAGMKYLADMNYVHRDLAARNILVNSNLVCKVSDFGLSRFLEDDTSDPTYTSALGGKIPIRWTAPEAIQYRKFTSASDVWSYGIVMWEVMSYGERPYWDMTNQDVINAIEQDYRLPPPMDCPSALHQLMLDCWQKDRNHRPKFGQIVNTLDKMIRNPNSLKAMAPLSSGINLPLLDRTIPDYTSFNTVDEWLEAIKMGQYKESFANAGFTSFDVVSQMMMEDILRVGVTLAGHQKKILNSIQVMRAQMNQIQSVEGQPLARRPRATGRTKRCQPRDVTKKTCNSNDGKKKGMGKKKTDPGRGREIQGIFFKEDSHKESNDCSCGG
Sequence of Jak2 (O60674 whole entry, looked up): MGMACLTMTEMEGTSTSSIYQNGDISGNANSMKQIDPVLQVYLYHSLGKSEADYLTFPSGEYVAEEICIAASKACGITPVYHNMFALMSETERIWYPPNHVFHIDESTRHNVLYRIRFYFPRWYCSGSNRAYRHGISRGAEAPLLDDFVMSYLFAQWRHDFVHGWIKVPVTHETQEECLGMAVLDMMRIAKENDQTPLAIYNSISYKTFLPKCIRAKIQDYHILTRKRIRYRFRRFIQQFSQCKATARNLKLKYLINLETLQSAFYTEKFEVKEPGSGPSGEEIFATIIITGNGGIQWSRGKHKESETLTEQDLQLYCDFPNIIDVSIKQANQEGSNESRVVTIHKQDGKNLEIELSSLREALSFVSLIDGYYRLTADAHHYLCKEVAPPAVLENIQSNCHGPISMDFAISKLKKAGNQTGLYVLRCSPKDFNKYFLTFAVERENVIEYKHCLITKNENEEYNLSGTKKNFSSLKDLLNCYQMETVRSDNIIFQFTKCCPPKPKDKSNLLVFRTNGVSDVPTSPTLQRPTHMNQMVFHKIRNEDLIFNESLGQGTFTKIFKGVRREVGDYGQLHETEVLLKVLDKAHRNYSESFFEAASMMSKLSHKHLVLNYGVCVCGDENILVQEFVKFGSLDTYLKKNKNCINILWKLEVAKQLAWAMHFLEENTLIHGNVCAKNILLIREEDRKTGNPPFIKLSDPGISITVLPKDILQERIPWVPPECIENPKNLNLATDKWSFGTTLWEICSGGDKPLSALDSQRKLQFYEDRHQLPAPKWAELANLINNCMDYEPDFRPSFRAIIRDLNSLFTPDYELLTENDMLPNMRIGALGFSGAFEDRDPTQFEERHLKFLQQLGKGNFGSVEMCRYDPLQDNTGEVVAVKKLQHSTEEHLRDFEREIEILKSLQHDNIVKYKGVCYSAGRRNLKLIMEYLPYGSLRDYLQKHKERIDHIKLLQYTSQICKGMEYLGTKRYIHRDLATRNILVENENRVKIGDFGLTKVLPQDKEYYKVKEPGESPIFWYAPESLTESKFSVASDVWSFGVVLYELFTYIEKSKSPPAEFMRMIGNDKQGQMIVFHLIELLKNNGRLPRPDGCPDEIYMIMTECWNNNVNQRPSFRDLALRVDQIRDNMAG

| SH2 binding enrichment (SHP2-C SH2) | SH2 binding enrichment (c-Src SH2) | SH2 binding enrichment (Grb2 SH2) | Sequence | phosphorylation enrichment (Jak2) | phosphorylation enrichment (c-Src) | phosphorylation enrichment (FGFR3) | phosphorylation enrichment (c-Abl (mouse)) | phosphorylation enrichment (Fes) | phosphorylation enrichment (Fyn) | phosphorylation enrichment (Hck) | phosphorylation enrichment (MERTK) | phosphorylation enrichment (Fer (mouse)) | phosphorylation enrichment (AncSZ) | phosphorylation enrichment (EPHB2) | phosphorylation enrichment (EPHB1) | phosphorylation enrichment (FGFR1) |
| --- | --- | --- | --- | --- | --- | --- | --- | --- | --- | --- | --- | --- | --- | --- | --- | --- |
| 0.74 | 0.484 | 0.848 | IIGNGYFFHVF [MYBPC3_Y1135_R1138H_YF] | 1.07 | 0.34 | 0.699 | 0.776 | 1.09 | 0.313 | 0.314 | 0.254 | 0.398 | 1.11 | 0.547 | 0.569 | 0.4 |
| 1.64 | 0.819 | 1.3 | PSQRRYVFFFS [PTEN_Y174_YF] | 1.16 | 0.6 | 1.24 | 1.27 | 1.77 | 0.721 | 0.476 | 0.691 | 0.735 | 1.54 | 0.655 | 0.809 | 0.731 |
| 0.446 | 0.542 | 0.777 | SMEGLYSSTQD [CLIC5_Y111] | 1.36 | 3.13 | 0.905 | 1.03 | 1.71 | 3.51 | 4.12 | 2.43 | 3.64 | 1.57 | 2.27 | 1.94 | 0.698 |
| 0.759 | 0.501 | 0.68 | FFDANYDGKEF [MAPRE2_Y162_YF] | 0.957 | 0.443 | 0.695 | 0.611 | 1.42 | 0.529 | 0.601 | 0.424 | 0.446 | 1.11 | 0.666 | 0.558 | 0.824 |
| 1.66 | 1.41 | 1.61 | IMNLLYHVVGW [GBA_Y412_T408M] | 2.43 | 5.2 | 5.38 | 2.74 | 0.872 | 4.49 | 6.31 | 7.65 | 2.16 | 0.963 | 2.71 | 4.93 | 6.14 |
| 0.544 | 0.442 | 0.674 | DEGVNYFMSKG [FBXO8_Y156] | 0.996 | 0.388 | 0.926 | 0.705 | 0.984 | 0.422 | 0.456 | 0.39 | 0.402 | 1.1 | 0.685 | 0.457 | 0.862 |
| 0.491 | 0.559 | 0.706 | KLIMECLPFGS [JAK2_Y931_Y931C_YF] | 1.57 | 0.611 | 0.858 | 0.96 | 1.39 | 0.619 | 0.652 | 0.521 | 0.622 | 1.24 | 0.588 | 0.969 | 0.576 |
| 0.565 | 1.65 | 0.706 | TRSYDYTEGGD [FGF7_Y58_M59T] | 0.876 | 0.375 | 0.59 | 0.642 | 0.976 | 0.56 | 0.446 | 0.463 | 0.414 | 0.898 | 0.465 | 0.439 | 0.61 |
| 0.713 | 0.753 | 0.847 | NFRRGYHLQVL [CD200R1L_Y138_H135R] | 0.528 | 0.38 | 0.528 | 0.486 | 0.699 | 0.416 | 0.386 | 0.394 | 0.439 | 0.621 | 0.473 | 0.379 | 0.462 |
| 0.588 | 0.513 | 0.687 | RRVEPYGENFN [APOA4_Y310] | 0.965 | 0.643 | 0.655 | 0.707 | 1.2 | 0.487 | 0.45 | 0.561 | 0.542 | 1.23 | 0.385 | 0.521 | 0.421 |
| 0.743 | 2.21 | 0.867 | TISPYYCQSLF [CRYAA_Y48_R49C] | 1.26 | 1.76 | 4.43 | 1.13 | 1.13 | 1.12 | 0.79 | 5.18 | 0.939 | 1.1 | 0.543 | 0.934 | 5.32 |
| 0.563 | 0.412 | 0.661 | TEDELYQLSLQ [RASGRP2_Y378] | 1.04 | 1.33 | 0.759 | 0.928 | 1.27 | 0.93 | 0.896 | 0.542 | 2.94 | 1.9 | 0.677 | 0.717 | 0.476 |
| 0.686 | 1.06 | 1.01 | FKRAVYCIIGR [NUP93_Y391_YF] | 0.772 | 0.809 | 0.536 | 0.776 | 0.9 | 0.682 | 0.938 | 1.13 | 0.529 | 0.952 | 0.617 | 0.576 | 0.511 |
| 0.666 | 0.573 | 0.716 | GVPLGYPIKAP [ELN_Y206] | 0.534 | 0.427 | 0.399 | 0.485 | 0.573 | 0.384 | 0.388 | 0.419 | 0.45 | 0.563 | 0.388 | 0.323 | 0.462 |
| 0.505 | 0.679 | 0.709 | NFYEYYVDDPP [GCHFR_Y48] | 1.23 | 4.3 | 4.76 | 0.877 | 1.29 | 5.21 | 2.65 | 6.46 | 6.58 | 2.53 | 6.26 | 5.35 | 5.94 |
| 0.668 | 0.478 | 0.85 | ANAFIYVVQLP [L1CAM_Y420_YF] | 1.02 | 0.678 | 0.855 | 0.724 | 1.32 | 0.631 | 0.693 | 0.909 | 0.559 | 1.19 | 0.743 | 0.701 | 0.538 |

| Sequence | SH2 binding enrichment (SHP2-C SH2) | SH2 binding enrichment (c-Src SH2) | SH2 binding enrichment (Grb2 SH2) | phosphorylation enrichment (Jak2) | phosphorylation enrichment (c-Src) | phosphorylation enrichment (FGFR3) | phosphorylation enrichment (c-Abl (mouse)) | phosphorylation enrichment (Fes) | phosphorylation enrichment (Fyn) | phosphorylation enrichment (Hck) | phosphorylation enrichment (MERTK) | phosphorylation enrichment (Fer (mouse)) | phosphorylation enrichment (AncSZ) | phosphorylation enrichment (EPHB2) | phosphorylation enrichment (EPHB1) | phosphorylation enrichment (FGFR1) |
| --- | --- | --- | --- | --- | --- | --- | --- | --- | --- | --- | --- | --- | --- | --- | --- | --- |
| RKGGSYTQAAS [HLA-A_Y344] | 0.584 | 1.06 | 1.07 | 0.637 | 0.384 | 0.563 | 0.902 | 0.885 | 0.465 | 0.443 | 0.461 | 0.699 | 0.631 | 0.399 | 0.446 | 0.442 |
